We go through three molecules from patent US9631180B2, “Recombinant manganese oxidase” (OREGON HEALTH & SCIENCE UNIVERSITY, priority 2013, dated 2017).

Substrate in data set [1]: COc1cccc(OC)c1O
The data set is described as follows: purified protein, by the assay type. Particulars: other: 2,6-DMP, pH 8, HEPES, 22° C., 468 nm, Michaelis-Menten, pH 8.0. Type of data set: biochemical, Bacillus sp. PL-12. How it is done: (§1) FIG. 8B is a plot showing the initial oxidation velocity of DMP plotted against initial substrate concentration in a reaction catalyzed by the recombinant Mn oxidase complex. […]
(§2) All plots in FIGS. 8A, 8B, and 8C were fitted with either Michaelis-Menten or allosteric sigmoidal functions as appropriate.
(§3) Kinetic experiments were performed on the Molecular Devices SpectraMax® M2 microplate reader spectrophotometer at 22° C. with purified protein. […] Reactions were carried out with 10 μg Mnx (final 240 nM) 100 mM in phosphate-citrate buffer pH 3-8 and 20 mM CHES, HEPES, and MES at pH 7-10. […] These assays were performed in at least two independent trials in triplicate. Fe(II) (ferrous ammonium sulfate) oxidation was measured by quenching 200 μl reactions with 50 μl of the Fe(II) chelating colorimetric assay FerroZine® (15 mM) and a ferrous ammonium sulfate standard curve, noting the absorbance at 570 nm. Fe(II) oxidation reactions were performed with 10 μg recombinant Mn oxidase complex in 100 mM Na acetate-acetic acid buffer (pH 4-5.5). Mn(II) (MnCl2) oxidation in 20 mM HEPES (pH 7-8.5) was measured by quenching 5 μl of 200 μl reactions with 195 μl leucoberbelin blue (LBB) colorimetric reagent and reading the absorbance at 618 nm. Working LBB reagent was prepared by diluting concentrated stock (100 mg LBB in 25 ml 0.4% NaOH) 1:10 into 1% acetic acid. A KMnO4 standard curve was used to determine MnO2 oxide equivalent concentration. The metal substrate assays were performed in five independent trials then the high and low values were discarded from each concentration. The linear part of each curve was fit plotted and fit with a linear regression in GraphPad Prism®. These slopes were converted to the appropriate kinetic units, plotted, and fit with nonlinear regressions determined by comparing best fit values in the same software. KM and Vmax were determined and reported as KM and kcat=Vmax/[enzyme].

Substrate in data set [2]: CCn1c(=NN=c2sc3cc(S(=O)(=O)O)ccc3n2CC)sc2cc(S(=O)(=O)O)ccc21
The experiment in a line: purified protein, by the assay type. Format: biochemical, Bacillus sp. PL-12. To be noted: other: ABTS, 22° C., 420 nm. As for the experimental part:
as §1, §2, §3

For data set [3] the following is noted: literature values for Fet3p ferroxidases, cited from earlier work; for Km: read-out: Fe(II) KM.
The mark [4] stands for this setting: pH 4.5, phosphate-citrate buffer, Michaelis-Menten, pH 4.5.
Where [5] appears, read: pH 8, HEPES, allosteric sigmoidal function, pH 8.0.

B1: recombinant Bacillus sp. PL-12 Mn oxidase complex (Mnx; MnxE3F3G), MnxG (SEQ ID NO: 7), MnxE (SEQ ID NO: 5) and MnxF (SEQ ID NO: 6) (Bacillus sp. PL-12) (protein)
chain: MLRKFHVVGISTRIVVNTFGDHNPNGRIYVLKENESKLKDLVRKNPYKPIDLVQPLAIRANEGDIVEILFENQLSFSAGMHFQEADYSVLSSDGADAGYNPDTTVEPGGEILYRLNVNQEGICFFTDLGNVSSTEQGSSVQGLFGALLVQKRGSSWTDPVTGGPINSGVYADIHHPFLPSFREYAWFFNDEMEIRDLTGERPLNPMTNQEAESFHGVNLRYEPMTNRKRLMEAGVVCPDCDSEEVHHDSWVFGDPATPILRGYVGDPAVIRLIHGGVKETHVFHYHVHQWLGDSSNINAEILDAQSISPQTHYSIQPLYGLGSLHGAIGDSIIHCHLYPHFGIGMWGMNRVFDTLQDGSQCYPNGVRIKALMPLPDRPEPPKPTPEKPGFPNFIPGKVGYKAPRPPLGIVGGREMTELERNAAIENPRPGAVFVDPCLDQDPVVVEFNVSAIEMPVVYNKQGWHDPKARFYVMDEDLDDILSGKKEPEPLVFHVPAGTCIRMNYTNRMPHILDGDAFQLVTRTYENGFHIHFVKFDVLACDGGNVGWNYDSAVLPGQTIRYEWYAETELKAFFFHDHLFANSHQQHGVFGAGVIQPRFSKFLDSRTGDEVDHGTQISVEHPLIPDYRDQTLFVHDFALLFDKNGRPIQPPEYPGSEDDPGVFGVNFKCEPLKFRLGEDCDPAYSFSSYVHGDPVTPILRAYEGDPIRIRLLQGAHEESHSFNIHGLRWKEERPDLGSSMKAQQHIGISESFTFETEIPASGDYLWAFEDEEDVWLGTWGLIRAYKGRMEDLIVLTDREALPEGSAETPKPTGKPPEKANPLASLPPGAYQGSPVKKFEVVAFQTPIQYNSYGDHDPYGIIFALKEDVEDILTGKKNPVPLILRANVGDLVEVTLTSELKKELFPFQDGIHPYPPVKEQSFYPPSLRISLHTSLLNYDVKTSSGDTVGYNPDQTVGPGETITYRWFVDGQFGMCSMWDMADLRNHRSFGTFGAFVAESRFTTYLDPYSLEKAITGENVILRHPLLPATREFVLILHDGVRLEDKDGKVIIDPMDGVVPDTEELEEVDTYDYGSRGFNYRSERLINRYKEHPVMHELFSSEVFGDPATPLFEAYPGEPVVMRITTPAERRRAHTFHLHGHYWKFDSKDLDSRIQSFLGHMVTGHTDDLRLIGGAGGVFNFPGDYLYRSGNIRWDIELGMWGIFRVHKDSKENLPRLEEVEGGWDNEEKA
notes: Cu-loaded; purified ~230 kDa complex of MnxG, MnxE and MnxF; MnxD not found by MS
With B1, the figures for the Km in data set [1], in data set [2] (setting [4]) and in data set [2] (setting [5]) were 576 ± 163 µM, 456 ± 23.3 µM and 3126 ± 391 µM, respectively. For the same molecule, the kcat (in general, the number of substrate molecules converted per active site and unit of time at saturation) in data set [2] (setting [4]) worked out at 0.206 ± 0.0136 s⁻¹; in data set [2] (setting [5]) it was 0.0595 ± 0.00891 s⁻¹.

B2: Fet3p C. albicans: ferroxidase Fet3p from Candida albicans, described in Ziegler et al 2011 (protein, UniProt P78591 21-624, looked up)
Iron transport multicopper …: AETHTWYFKTGWVDANPDGVYPRKMIGFNDSWPLPTLRVKKGDRVQLYLINGFDNLNTTLHFHGLFVRGANQMDGPEMVTQCPIPPGETYLYNFTVTDQVGTYWYHSHTGGQYGDGMRGVFIIEDDDFPYHYDEEVVLTLSDHYHKYSGDIGPAFLTRFNPTGAEPIPQNFLFNETRNATWKVEPGKTYFVRILNVGGFVSQYLWMEDHEFTIVEIDGVYVEKNTTDLIYITVAQRYGVLITTKNSTDKNYVFMNGVDTTMLDSVPADLQVNGTNYIVYNESSALPDAYDIDSYDDALDDFYLKPLSKQKLMDDADYTITVDVQMNVLNDGINYAFFNNISYKAPKVPTLLTVLSAGEAATNELIYGTNTNSFVLQGGDIVDIVLNNFDTGKHPFHLHGHVFQLIERHEAIGSKESAVTFNVSDHAEWPEYPMIRDTVYVKPHSYMVLRFKADNPVVWFFHCHVDWHLEQGLAVVLIEDPQAIQKNEKITENHKRICEKVGVPWEGNAAANSNDYLDLKGENVQVKRLPTGFTTKGIVALVFSCVAAFLGLFSFSFYGMNDIAHVEDKVARDLDIDLEAENEDEEEAVVLNQNSSSSDSNSKPH
Regarding B2, in data set [3], the “Fe(II) kcat” value was 1.06 ± 0.02 s⁻¹ and the Km (commonly the concentration of substrate that gives half-maximal velocity) was 7.9 ± 0.5 µM.

B3: Fet3p S. cerevisiae: ferroxidase Fet3p from Saccharomyces cerevisiae, described in Stoj et al 2006 (protein, UniProt P38993 22-636, looked up)
Iron transport multicopper …: ETHTFNWTTGWDYRNVDGLKSRPVITCNGQFPWPDITVNKGDRVQIYLTNGMNNTNTSMHFHGLFQNGTASMDGVPFLTQCPIAPGSTMLYNFTVDYNVGTYWYHSHTDGQYEDGMKGLFIIKDDSFPYDYDEELSLSLSEWYHDLVTDLTKSFMSVYNPTGAEPIPQNLIVNNTMNLTWEVQPDTTYLLRIVNVGGFVSQYFWIEDHEMTVVEIDGITTEKNVTDMLYITVAQRYTVLVHTKNDTDKNFAIMQKFDDTMLDVIPSDLQLNATSYMVYNKTAALPTQNYVDSIDNFLDDFYLQPYEKEAIYGEPDHVITVDVVMDNLKNGVNYAFFNNITYTAPKVPTLMTVLSSGDQANNSEIYGSNTHTFILEKDEIVEIVLNNQDTGTHPFHLHGHAFQTIQRDRTYDDALGEVPHSFDPDNHPAFPEYPMRRDTLYVRPQSNFVIRFKADNPGVWFFHCHIEWHLLQGLGLVLVEDPFGIQDAHSQQLSENHLEVCQSCSVATEGNAAANTLDLTDLTGENVQHAFIPTGFTKKGIIAMTFSCFAGILGIITIAIYGMMDMEDATEKVIRDLHVDPEVLLNEVDENEERQVNEDRHSTEKHQFLTKAKRFF
With B3, in data set [3], the “Fe(II) kcat” value was 0.835 ± 0.023 s⁻¹ and the Km was 4.9 ± 0.8 µM.
